Data published in the DeepSol protein solubility set.

Assay: soluble on expression in E. coli; label from the status in PepcDB or PDB records

Row | Sequence | soluble on expression in E. coli
1 | MHHHHHHSSGRENLYFQGTIDDLFIFKRKLGSGAFGDVHLVEERSSGLERVIKTINKDRSQVPMEQIEAEIEVLKSLDHPNIIKIFEVFEDYHNMYIVMETCEGGELLERIVSAQARGKALSEGYVAELMKQMMNALAYFHSQHVVHKDLKPENILFQDTSPHSPIKIIDFGLAELFKSDEHSTNAAGTALYMAPEVFKRDVTFKCDIWSAGVVMYFLLTGCLPFTGTSLEEVQQKATYKEPNYAVECRPLTPQAVDLLKQMLTKDPERRPSAAQVLHHEWFKQA | soluble
2 | MSDISRGDIRVKGFTDSEMDFQLIRQLGSSSYRAASVGECLNIANTMKNEDPEEWVRQFERLAEWQKKDGLERMVKNHVISGREQLFKASNSFRAAEYYSPPSSEHHRKLGLNSADCFCTAISSMDIHFENHSIPYKNINLPCYFISPANDGEKRDTVMIVSGFDGTLEEEFLMRGLAAVERGYNVIHFAGPGQMDVFRKYPDTYFEPDFEQVVKRIINYFEFRQEINMAKLTLMGISFGGYFATRAASHEPRIKVLIANSPILDLHAYMCSFVKMDPCEMPDSEDFSINDLPSIPNEVMPPQLKAQTEHLIRRFGQPTFKATFHYLREFTVGDSLNHIKIPCLALLGSGEGGEPGKQFAEFCKITNSAQYEFSDFEGAGSHCQVGNVSYSNAVVYDWLDSL | not soluble
3 | MAAINTKVKKAVIPVAGLGTRMLPATKAIPKEMLPLVDKPLIQYVVNECIAAGITEIVLVTHSSKNSIENHFDTSFELEAMLEKRVKRQLLDEVQSICPPHVTIMQVRQGLAKGLGHAVLCAHPVVGDEPVAVILPDVILDEYESDLSQDNLAEMIRRFDETGHSQIMVEPVADVTAYGVVDCKGVELAPGESVPMVGVVEKPKADVAPSNLAIVGRYVLSADIWPLLAKTPPGAGDEIQLTDAIDMLIEKETVEAYHMKGKSHDCGNKLGYMQAFVEYGIRHNTLGTEFKAWLEEEMGIKK | soluble
4 | MVDTISVLNPIHLDLSVDPQDNVRISARSTTSSSASTSSDSELMSPRAEELLRMQAELRATRTALAEKDKKMTQIQVTVDAEVQELTEKLFQEAYKMVNTAEARREKAGKLLTESRLEVEVLQAEVRALKELISAPGMGQNHFKQTTSPEHKSTLSKLFNGSSSSSKKQKDAANVSDKKKASSLPSTSTYTLTPSEDREQKEANAVEEIDPILFSEFEFWREAGHPTTSHPFIDRVTVEEVEPCMLFENSELSEEIMKAIRENRVQLEPLNELKPSVRICALTNASRFCPYRVRTGDEEQEWHYVSLIARNRVSYSTFLGLGTIDNFN | not soluble
5 | MAYELPELPYAYDALEPHIDKETMTIHHTKHHNTYVTNLNKAVEGNTALANKSVEELVADLDSVPENIRTAVRNNGGGHANHKLFWTLLSPNGGGEPTGALAEEINSVFGSFDKFKEQFAAAAAGRFGSGWAWLVVNNGKLEITSTPNQDSPLSEGKTPILGLDVWEHAYYLNYQNRRPDYISAFWNVVNWDEVARLYSERK | soluble
6 | MQFFDGYHYHGTTFEQSYRCYPASFIDKPQLESGDKIIMPPSALDRLASLHIDYPMLFELRNAGIERVTHCGVLEFIAEEGMIYMPYWMMQNLLLQEGDIVRVRNVTLPKGTYVKLQPHTTDFLDISNPKAILETALRNYSCLTSGDSIMVPYNNKKYFIDIVETKPANAISIIETDCEVDFAPPLDYKEPERPTAPSAAKGPAKAEEVVDEPEPKFNPFTGSGRRLDGRPLAYEPAPASSSKGKQPVVANGNGQSSVASSSEKATRAQGKLVFGANGNRAPKEAAPKVGAAKETKKEEQEKKDEPKFQAFSGKKYSLRG | soluble
7 | MASQNRDPAATSVAAARKGAEPSGGAARGPVGKRLQQELMTLMMSGDKGISAFPESDNLFKWVGTIHGAAGTVYEDLRYKLSLEFPSGYPYNAPTVKFLTPCYHPNVDTQGNISLDILKEKWSALYDVRTILLSIQSLLGEPNIDSPLNTHAAELWKNPTAFKKYLQETYSKQVTSQEP | soluble
8 | MANELATEGASGVDAPRIGPRLKAARQAQRLTLDDLAASCGITKGYLSKIERDHASASVATLVRICAALNIPVGSLFESSAAGEVVRADNYPPISFGGERMAEFLLTPFGERRIQSLLSRIEPGGGSGSETYELPVDVAFVYVVSGRICISFNGPGAGEDVSLATGDAFTFSPQLPHSFRALGDDTATVLWILTPALPDDVRPTSR | not soluble
9 | KYPFLREAGSSFKDRDVTKMSDLIATWDGQDIKGPALIGVPLSKSSISHSGASFAPGTIRQALKHSSAYSAELGEHVVSELLYDLGDIDIHVTDIVKSHHHIFQTMHALLSDHPDWVPLILGGDNSISYSTIKAIAQTKGTTAVIQFDAHHDVRNTEDGGPTNGTPFRRLLDEEIIEGQHLIQLGIREFSNSQAYEAYAKKHNVNIHTMDMIREKGLIPTIKEILPVVQDKTDFIFISVDMDVLDQSHAPGCPAIGPGGLYTDELLEAVKYIAQQPNVAGIEIVEVDPTLDFRDMTSRAAAHVLLHALK | not soluble
10 | SCEGPSRISGPIPPDPTLCPDNYRRPTSAQGRLEGNALKLDLLTSDRALDTTAPRGPCIGPGAGEILERGQRGVGDVLLQLEGISLGPGASLKRKDPKDHEKENLRRIREIQKRFREQERSREQGQPRPLKALWRSPKYDKVESRVKAQLQEPGPASGTESAHFLRAHSRCGPGLPPPHVSSPQPTPPGPEAKEPGLGVDFIRHNARAAKRAPRRHSCSLQVLAQVLEQQRQAQEHYNATQKGHVPHYLLERRDLWRREAEARKQSQPDPAMPPGHTRMPENQRLETLTKLLQSQSQLLRELVLLPAGADSLRAQSHRAELDRKLVQVEEAIKIFSRPKVFVKMDD | soluble
11 | GMTRSEAQGRLTGLAPVSVIDIGSNSVRLVVYEGLSRAPAVLFNEKVLCGLGKGLALTGRMHEEGVTRALMALRRFHVLSEQAQAQKLYVLATAAAREAENGPDFIREAEAILGCEIEVLSGEKEALYSAYGVISGFYQPDGIAGDLGGGSLELIDIKDKSCGEGITLPLGGLRLSEQSDGSLEKAATIARKHVKSFAKLLAAGEGRTFYAVGGTWRNIAKLHMEISGYPLHMMQGYELPLEEMLNFLEEVIVSRDSKDPAWQAVSKNRRSLLPFGAIAMREVLRAMKPAKIAFSAQGVREGYLYSLLTEAERESDPLLVAADELAILRARSPEHARELADWSGRTFPVFGIDETEEESRYRQAACLLADISWRAHPDYRGLQALNIIAHSSFVAITHPGRAYIALANYYRFEGLNDNGTTEPLAAMAGERLQELGKLLGGLLRVVYLFSASMPGVVDHLKFRKSDNPDIDLEFVVPHDYCDFAGERLDGRLQQLAKLTGKRLAFVFE | soluble
12 | MAHHHHHHMLRRVIVGGVCRRASPSIAGRMVAARYAATIPTSTVASTTMSSSPTSRDDASTRAVVSEVPNLSFLASKTVLAETVEQTIEVCEALLNEIPKVKGAKEKHDLIDSTSNVLCLLLDPCEFVRQIHPDEEYKKHAAYAFQKGYEYMSKVNSRRDLYDVIVELDSPEGRKQLDDEEIKNVVQLKRDMESNGIHLSDALREKVTEMNIEKEDLAMRFLTEQGAKNPFATLRYLLRCRYELAKLLGFESYAEQQLRGTMLGNQQSVWHFLCGIAHKYRSAAEKELNLIRQNVGEVRNRQNITDDTRARVAHSLRRDAEPAKAEEYFSVANCIRGIQCLCSEVFGLRLEEVPFEREEVFNPDAKKFYVYDENRAFLGIIVLDMYASDMKYCQAGHLTLQLGCKPHQEALARVGLKLPERQYPVVVLTCNVGALTPAQRLPNGRFDDESTLMHPSEVTTVFHEFGHAMHTIFGQTKVQNLAGTRSSIDFVETFSQLFEHFLTSHEFLRLWAHRINTREPISFDIVMKRNAAADMFKHLDMLDQVVLSAVDQTLHGPQPYTVYFPHGQNGHLGKRTLGDSSDYGRGTYNLAKILIDVCTPLSIVTPTESGVLGTLSFEHLSGYPAGYYGYLYSLSVARRIWSKKFEKDPLNRAAGKELVQEVMRHGAACNPVEVIEKYLGDNLDEIDIWA | not soluble
